Experiment [1] deals with Ankyrin2, large isoform (Ank2-L) (Drosophila (endogenous in larval brain)).
For experiment [2], the target named is Ank2-S–EGFP (short isoform of Ank2 containing all potential Nrg interacting domains) (Drosophila). Kind of experiment: co-IP; S2 cells co-transfected with act5C–Gal4, UAS–Ank2-S–EGFP and UAS–Nrg–3xHA; IP of Nrg180-HA proteins using Ank2-S–GFP; blots with anti-HA and anti-GFP; four independent IPs quantified (Odyssey2.1).
Experiment [3] deals with Ankyrin2, large isoform (Ank2-L) (Drosophila (endogenous in larval brain)). The source holds these as a separate data set.

As to “Nrg180-HA Y-A (tyrosine of the FIGQY motif replaced with alanine) (from UniProt P20241-1 24-1302) (natural protein)”, in experiment [1], the FRAP of GFP-tagged Nrg180^Y-A in motoneurons in vivo (ok371–Gal4): mobility against wild type (fold against wild type) is more than 1.5. Further, in experiment [2], the decrease in binding capacities compared to wild-type was determined as 90%. “Nrg180-HA Y-F (tyrosine of the FIGQY motif replaced with phenylalanine) (from UniProt P20241-1 24-1302) (natural protein)” returned an FRAP of GFP-tagged Nrg180^Y-F in motoneurons in vivo (ok371–Gal4): mobility against wild type (fold against wild type) in experiment [1] of more than 1.5. This molecule showed a decrease in binding capacities compared to wild-type in experiment [2] of 30%. For the molecule “Nrg180-HA Y-D (tyrosine of the FIGQY motif replaced with aspartate) (from UniProt P20241-1 24-1302) (natural protein)”, the FRAP of GFP-tagged Nrg180^Y-D in motoneurons in vivo (ok371–Gal4): mobility against wild type (fold against wild type) in experiment [1] was more than 1.5. In experiment [2], this molecule came in with a decrease in binding capacities compared to wild-type of 70%. In experiment [3], “Nrg180-HA ΔFIGQY (entire FIGQY motif deleted) (from UniProt P20241-1 24-1302) (natural protein)” yielded an FRAP of GFP-tagged Nrg180^ΔFIGQY in motoneurons in vivo (ok371–Gal4): mobile fraction of 80%.

B1: Nrg180-HA, wild type (UAS–Nrg–3xHA) (natural protein)
chain: KGNRPPRITKQPAPGELLFKVAQQNKESDNPFIIECEADGQPEPEYSWIKNGKKFDWQAYDNRMLRQPGRGTLVITIPKDEDRGHYQCFASNEFGTATSNSVYVRKAELNAFKDEAAKTLEAVEGEPFMLKCAAPDGFPSPTVNWMIQESIDGSIKSINNSRMTLDPEGNLWFSNVTREDASSDFYYACSATSVFRSEYKIGNKVLLDVKQMGVSASQNKHPPVRQYVSRRQSLALRGKRMELFCIYGGTPLPQTVWSKDGQRIQWSDRITQGHYGKSLVIRQTNFDDAGTYTCDVSNGVGNAQSFSIILNVNSVPYFTKEPEIATAAEDEEVVFECRAAGVPEPKISWIHNGKPIEQSTPNPRRTVTDNTIRIINLVKGDTGNYGCNATNSLGYVYKDVYLNVQAEPPTISEAPAAVSTVDGRNVTIKCRVNGSPKPLVKWLRASNWLTGGRYNVQANGDLEIQDVTFSDAGKYTCYAQNKFGEIQADGSLVVKEHTRITQEPQNYEVAAGQSATFRCNEAHDDTLEIEIDWWKDGQSIDFEAQPRFVKTNDNSLTIAKTMELDSGEYTCVARTRLDEATARANLIVQDVPNAPKLTGITCQADKAEIHWEQQGDNRSPILHYTIQFNTSFTPASWDAAYEKVPNTDSSFVVQMSPWANYTFRVIAFNKIGASPPSAHSDSCTTQPDVPFKNPDNVVGQGTEPNNLVISWTPMPEIEHNAPNFHYYVSWKRDIPAAAWENNNIFDWRQNNIVIADQPTFVKYLIKVVAINDRGESNVAAEEVVGYSGEDRPLDAPTNFTMRQITSSTSGYMAWTPVSEESVRGHFKGYKIQTWTENEGEEGLREIHVKGDTHNALVTQFKPDSKNYARILAYNGRFNGPPSAVIDFDTPEGVPSPVQGLDAYPLGSSAFMLHWKKPLYPNGKLTGYKIYYEEVKESYVGERREYDPHITDPRVTRMKMAGLKPNSKYRISITATTKMGEGSEHYIEKTTLKDAVNVAPATPSFSWEQLPSDNGLAKFRINWLPSTEGHPGTHFFTMHRIKGETQWIRENEEKNSDYQEVGGLDPETAYEFRVVSVDGHFNTESATQEIDTNTVEGPIMVANETVANAGWFIGMMLALAFIIILFIIICIIRRNRGGKYDVHDRELANGRRDYPEEGGFHEYSQPLDNKSAGRQSVSSANKPGVESDTDSMAEYGDGDTGQFTEDGSFIGQYVPGKLQPPVSPQPLNNSAAAHQAAPTAGGSGAAGSAAAAGASGGASSAGGAAASNGGAAAGAVATYV
B1 registered an FRAP of GFP-tagged Nrg180 in motoneurons in vivo (ok371–Gal4): mobile fraction (% of total protein) in experiment [3] of 40.

Values taken from publication PMC3627646.
